Data on 4 molecules can be found in PMC8809517, “Cofactor-independent RNA editing by a synthetic S-type PPR protein”.

Holding throughout (assay): high-throughput RNA pulldown from lysate on Ni-NTA beads; HRP: 50 mM Tris pH 8, 150 mM NaCl, 1 mM beta-mercaptoethanol, 50 ug/ml BSA, 3 ug/ml yeast RNA, 0.5% heparin; ITC and FP: Tris pH 8, 200 mM KCl, 5% glycerol; MST: 50 mM Tris pH 8, 200 mM NaCl, 1 mM DTT, BSA, heparin, 0.05% Tween 20
Holding throughout (details): tags: N-terminal His-eGFP

Data set [1] deals with T1, GFP-9S library array, motif 4 ND N98L;D124H (synthetic construct, N98L;D124H).
T1 chain: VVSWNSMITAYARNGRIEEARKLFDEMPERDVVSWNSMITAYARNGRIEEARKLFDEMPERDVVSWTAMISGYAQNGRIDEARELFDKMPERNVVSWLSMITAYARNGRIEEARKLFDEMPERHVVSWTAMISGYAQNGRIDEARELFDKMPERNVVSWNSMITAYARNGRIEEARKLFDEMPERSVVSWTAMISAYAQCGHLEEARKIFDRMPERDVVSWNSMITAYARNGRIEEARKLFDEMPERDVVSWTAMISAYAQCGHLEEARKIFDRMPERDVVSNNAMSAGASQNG

For data set [2], the target named is T2, GFP-9S library array, motif 4 ND N98Q;D124L (synthetic construct, N98Q;D124L).
T2 chain: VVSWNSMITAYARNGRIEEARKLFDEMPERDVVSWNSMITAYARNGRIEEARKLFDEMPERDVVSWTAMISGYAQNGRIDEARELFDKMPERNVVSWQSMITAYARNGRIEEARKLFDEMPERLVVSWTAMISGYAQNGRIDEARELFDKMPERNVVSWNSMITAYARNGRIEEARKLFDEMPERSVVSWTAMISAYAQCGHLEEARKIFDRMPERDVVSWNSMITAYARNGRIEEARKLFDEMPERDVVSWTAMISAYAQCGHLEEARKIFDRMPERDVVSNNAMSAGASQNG

For data set [3], the target named is T3, GFP-9S library array, motif 4 ND D124M (synthetic construct, D124M).
T3 chain: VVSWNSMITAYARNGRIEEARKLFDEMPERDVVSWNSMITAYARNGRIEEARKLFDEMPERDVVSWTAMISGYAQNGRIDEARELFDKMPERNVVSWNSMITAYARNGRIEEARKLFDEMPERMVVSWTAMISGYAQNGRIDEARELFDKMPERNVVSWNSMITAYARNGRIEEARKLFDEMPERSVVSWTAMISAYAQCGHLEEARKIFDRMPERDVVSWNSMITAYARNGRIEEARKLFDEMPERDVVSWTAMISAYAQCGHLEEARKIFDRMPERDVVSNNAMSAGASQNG

Data set [4] deals with T4, GFP-9S library array, motif 4 ND N98R;D124W (synthetic construct, N98R;D124W).
T4 chain: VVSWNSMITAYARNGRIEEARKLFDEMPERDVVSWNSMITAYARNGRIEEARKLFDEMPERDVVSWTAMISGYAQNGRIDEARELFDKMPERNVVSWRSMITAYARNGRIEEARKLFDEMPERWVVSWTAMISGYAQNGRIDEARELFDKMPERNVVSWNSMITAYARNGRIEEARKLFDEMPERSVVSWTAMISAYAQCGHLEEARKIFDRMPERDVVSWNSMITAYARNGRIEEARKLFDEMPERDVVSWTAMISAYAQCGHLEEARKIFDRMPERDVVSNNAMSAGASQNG

In data set [5] the target is T5, GFP-9S library array, motif 4 ND N98K;D124R (synthetic construct, N98K;D124R).
T5 chain: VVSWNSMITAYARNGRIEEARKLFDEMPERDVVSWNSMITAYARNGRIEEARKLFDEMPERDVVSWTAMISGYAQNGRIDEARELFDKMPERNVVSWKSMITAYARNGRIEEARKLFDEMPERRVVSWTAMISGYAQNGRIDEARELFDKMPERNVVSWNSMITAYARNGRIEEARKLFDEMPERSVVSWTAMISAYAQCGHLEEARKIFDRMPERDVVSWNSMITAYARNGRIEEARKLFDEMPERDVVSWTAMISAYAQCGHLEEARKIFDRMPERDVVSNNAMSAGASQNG

With AUUAUACGUGA (ssRNA) [IR-rpoA-U], the Kd was 125 nM in data set [1] (label: 5' IRDye 800CW); 261 nM in data set [2] (label: 5' IRDye 800CW); 21.2 nM in data set [3] (label: 5' IRDye 800CW); 337 nM in data set [4] (label: 5' IRDye 800CW); 66.9 nM in data set [5] (label: 5' IRDye 800CW).
Turning to AUUACACGUGA (ssRNA) [Cy5-rpoA], the Kd is 179 nM in data set [1] (label: 5' Cy5); 122 nM in data set [2] (label: 5' Cy5); 71.1 nM in data set [3] (label: 5' Cy5); 147 nM in data set [4] (label: 5' Cy5); 42.9 nM in data set [5] (label: 5' Cy5).
The matching figures for AUUAGACGUGA (ssRNA) [Cy5-rpoA-G]: 196 nM, 84.1 nM, 139 nM, 88.7 nM and 55.5 nM.
Regarding AUUAAACGUGA (ssRNA) [IR-rpoA-A], the Kd in data set [1] (label: 5' IRDye 800CW) was 399 nM; in data set [2] (label: 5' IRDye 800CW) it was 155 nM; in data set [3] (label: 5' IRDye 800CW), 78.1 nM; in data set [4] (label: 5' IRDye 800CW), 249 nM; in data set [5] (label: 5' IRDye 800CW) it was 139 nM.
